According to FireProtDB (doi:10.1016/j.jmb.2003.11.056):
“And” between values parts separate entries of the source, which are not always exact repeats. Equal values may be shown once.

Settings: Escherichia coli (strain K12), Thermal, Fluorescence, whole UniProt chain shown

B1: Iron-sulfur cluster assembly protein CyaY wild type, P27838 (protein)
chain: MNDSEFHRLADQLWLTIEERLDDWDGDSDIDCEINGGVLTITFENGSKIIINRQEPLHQVWLATKQGGYHFDLKGDEWICDRSGETFWDLLEQAATQQAGETVSFR
Tm (pH 7, phosphate 20 mM): 53.2 °C and 53.9 °C and 53.8 °C
Tm (pH 7.2, Hepes 10 mM): 49.2 °C and 50.9 °C
